Test results as given in patent US20220143136A1, “USE OF ANNEXINS IN PREVENTING AND TREATING MUSCLE MEMBRANE INJURY” (NORTHWESTERN UNIVERSITY, priority 2018, published 2022).

Tests used:
[1] = test system: Sgcg-null mice; experiment: Anti-HIS immunofluorescence localization after systemic injection, Sgcg-null versus wildtype; assay type: in vivo, mouse
Protocol: Immunofluorescence microscopy. Mice were systemically injected with recombinant annexin A6 with a C-terminal HIS tag (R&D). Muscle was harvested and flash frozen. Muscle sections (10 μm thick) from the center of frozen-embedded muscles were collected on the cryostat (chamber, −20° C.; sample, −15° C.; catalog number CM1950; Leica, Wetzlar, Germany) for immunostaining. Tissues were fixed with 4% paraformaldehyde for 10 minutes on ice. Block and permeabilization were with 0.1% Triton (catalog number X-100; Sigma-Aldrich), 10% fetal bovine serum, and PBS for 60 minutes. For laminin detection, anti-laminin antibody was used at a dilution of 1:100 and for HIS detection, anti-HIS antibody was used at 1:100 overnight at 4° C. Hoechst labelled nuclei. Sections were PBS rinsed, incubated with secondary antibody for 1 hour, PBS rinsed, and mounted. Imaging was performed using a Zeiss Axio Observer A1 microscope (Zeiss, Oberkochen, Germany).

[2] = test system: Sgcg-null mice; experiment: Chronic injury, short-term chronic dosing and serum biomarker analysis; assay type: in vivo, mouse; conditions: for serum creatine kinase (CK) at day 14: 1 mg/kg once every three days for 14 days, vs PBS control
Protocol: Chronic Injury and biomarker analysis. […] Mice were injected once every 3 days for a period of 12 days. Serum was acquired as previously described (Demonbreun et al 2016a). Serum CK was analyzed for each mouse using the EnzyChrom Creatine Kinase Assay (catalog ECPK-100, BioAssay Systems) following the manufacturer's instructions. Lactate dehydrogenase was analyzed for each mouse using (LDH cytotoxicity kit MK401, Takara) following the manufacturer's instructions.
Serum collection and CK analysis.
Short-term chronic dosing regimen. […] An additional cohort of Sgcg-null mice had blood drawn as described above immediately prior to the first protein injection. Then, 1 mg/kg recombinant annexin A6 or annexin A2 (both produced by Northwestern's Protein Production Core) was injected into the right retro-orbital cavity of sedated mice, once every 3 days for a total of 5 injections and then blood drawn on day 14 post initial injection.

[3] = test system: wildtype myofibers; experiment: Laser injury FM 4-64 uptake, E coli versus HEK cell produced rANXA6; assay type: cell-based, mouse; conditions: 13 μg/ml and 130 μg/ml; vs BSA control
Protocol: Myofiber isolation, laser injury, and dye measurement. For recombinant myofibers studies, myofibers were isolated from wildtype mice. Myofibers were incubated in Ringer's media with 13 μg/ml or 130 μg/ml human recombinant annexin, E coli or HEK cell produced. Bovine serum albumin (BSA) was used as a negative control. FM 4-64 ([…]) was added to the myofibers just prior to imaging. Fibers were subjected to laser-induced damage at room temperature using the Nikon A1R-MP multiphoton microscope. Imaging was performed using a 25×1.1 NA objective directed by the NIS-Elements AR imaging software. FM 4-64 was excited using a 920 nm wavelength laser and emission wavelengths of 575 nm and 629 nm were collected, respectively. To induce laser damage on isolated myofibers, a diffraction limited spot (diameter approximately 410 nm) was created on the lateral membrane of the myofiber using a 920 nm wavelength laser at 10-15% laser power for 1 second. FM 4-64 area was measured using FIJI from a single slice near the middle of the z-stack. Myofiber quality control was based on a number of characteristics including using adherent myofibers with intact sarcomere structure. Myofibers appeared devoid of tears or ruptures induced during the isolation protocol. The region of the myofiber selected for damage was linear and not located on a nucleus or neuromuscular junction.
Statistical analyses were performed with Prism (Graphpad, La Jolla, Calif.). Comparisons relied on ANOVA (1way ANOVA for 1 variable). P-values of less than or equal to 0.05 were considered significant. Error bars represent +/−standard error of the mean (SEM).

[4] = 1 mg/kg retro-orbital once every 3 days for 12 days, vs control

B1: recombinant annexin A6: recombinant human annexin A6 protein with C-terminal HIS tag (5186-A6-050, R&D systems); mouse protein from Northwestern core in one cohort (protein, UniProt P08133 2-673, looked up)
Annexin A6: AKPAQGAKYRGSIHDFPGFDPNQDAEALYTAMKGFGSDKEAILDIITSRSNRQRQEVCQSYKSLYGKDLIADLKYELTGKFERLIVGLMRPPAYCDAKEIKDAISGIGTDEKCLIEILASRTNEQMHQLVAAYKDAYERDLEADIIGDTSGHFQKMLVVLLQGTREEDDVVSEDLVQQDVQDLYEAGELKWGTDEAQFIYILGNRSKQHLRLVFDEYLKTTGKPIEASIRGELSGDFEKLMLAVVKCIRSTPEYFAERLFKAMKGLGTRDNTLIRIMVSRSELDMLDIREIFRTKYEKSLYSMIKNDTSGEYKKTLLKLSGGDDDAAGQFFPEAAQVAYQMWELSAVARVELKGTVRPANDFNPDADAKALRKAMKGLGTDEDTIIDIITHRSNVQRQQIRQTFKSHFGRDLMTDLKSEISGDLARLILGLMMPPAHYDAKQLKKAMEGAGTDEKALIEILATRTNAEIRAINEAYKEDYHKSLEDALSSDTSGHFRRILISLATGHREEGGENLDQAREDAQVAAEILEIADTPSGDKTSLETRFMTILCTRSYPHLRRVFQEFIKMTNYDVEHTIKKEMSGDVRDAFVAIVQSVKNKPLFFADKLYKSMKGAGTDEKTLTRIMVSRSEIDLLNIRREFIEKYDKSLHQAIEGDTSGDFLKALLALCGGED
modifications: C-terminal His tag
notes: recombinant human annexin A6 protein with C-terminal HIS tag (5186-A6-050, R&D systems); mouse protein from Northwestern core in one cohort
- anti-HIS immunofluorescence at the muscle membrane ([1]; Sgcg-null (LGMD2C) muscle): localized to the muscle membrane
- anti-HIS immunofluorescence at the muscle membrane ([1]; Sgcg-null (LGMD2C) muscle, listed as rANXA6): increased
- anti-HIS immunofluorescence at the muscle membrane ([1]; uninjured wildtype muscle): minimal
- serum CK fold change post/pretreatment (Day 14/Day 0) ([2]; 1 mg/kg every 3 days for 14 days, compared to recombinant annexin A2, proteins from Northwestern's Protein Production Core): significantly reduced
- serum creatine kinase (CK) at day 14 [2]: significantly decreased
- serum creatine kinase (CK) at day 14 ([2]; listed as rANXA6): lower
- serum creatine kinase (CK) [2, 4]: reduced
- serum lactate dehydrogenase (LDH) [2, 4]: reduced
- histology of gastrocnemius/soleus muscle ([2]; 14-day dosing, vs PBS): qualitatively less injury
- FM 4-64 dye uptake after laser injury [3]: reduction
